Experimental data from PMC4529489.
One block for each substance: values may come before it.

Legend:
Human Ubc13 R85S (human) = assay: ITC
[1] = molecular target: Human Ubc13, wild type (human); assay: ITC
Ube2V2 (Homo sapiens) = Ube2V2 (Homo sapiens) (UniProt Q15819); conditions: cited from earlier work

- fold increase of Kd against WT Ubc13 (Human Ubc13 R85S (human)): > 30 times
Substance: Human Ube2V2 (natural protein)

- fold increase of Kd against WT Ube2V2 [1]: 4 times
Substance: Human Ube2V2 E20A (natural protein)

Substance: Ubc13 (from UniProt P61088)
- Kd (Ube2V2 (Homo sapiens)): 50 nM
